Experimental findings from patent WO2016092096A1 (dated 2016) are described below.

The target in one experiment is T1, NDM carbapenemase (Klebsiella pneumoniae, UniProt C7C422 29-270).
T1 construct: The antigen in the assays came from NDM-positive strains or from supernatants of expressing cells
Kind of experiment: sandwich on ArrayTube array as in Example 2; cell supernatant denatured 10 min at 99°C.

The next experiment addresses T2, VIM carbapenemase (Pseudomonas aeruginosa (strain ATCC …, UniProt A0A0F7KYQ8 21-266)).
T2 construct: The antigen in the assays came from VIM-positive strains or from supernatants of expressing cells
The description is as above.

The target of experiment [1] is T3, OXA-48 carbapenemase (Klebsiella pneumoniae, UniProt Q6XEC0 23-265). The description is as above.
Experiment [2] has as its target T3, OXA-48 carbapenemase. In words: sandwich on ArrayTube array, 1461 capture and biotin-labelled 1281 detector, cultivated cells of clinical strains.

T3 sequence (Q6XEC0 23-265 limits assumed): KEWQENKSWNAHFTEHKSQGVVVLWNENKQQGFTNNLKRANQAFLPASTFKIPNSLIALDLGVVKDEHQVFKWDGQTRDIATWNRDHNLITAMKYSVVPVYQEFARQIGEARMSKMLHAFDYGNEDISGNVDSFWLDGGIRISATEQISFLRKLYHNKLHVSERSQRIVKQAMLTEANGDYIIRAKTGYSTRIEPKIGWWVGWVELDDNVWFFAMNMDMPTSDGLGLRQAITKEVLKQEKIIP
T1 sequence (C7C422 29-270 limits assumed): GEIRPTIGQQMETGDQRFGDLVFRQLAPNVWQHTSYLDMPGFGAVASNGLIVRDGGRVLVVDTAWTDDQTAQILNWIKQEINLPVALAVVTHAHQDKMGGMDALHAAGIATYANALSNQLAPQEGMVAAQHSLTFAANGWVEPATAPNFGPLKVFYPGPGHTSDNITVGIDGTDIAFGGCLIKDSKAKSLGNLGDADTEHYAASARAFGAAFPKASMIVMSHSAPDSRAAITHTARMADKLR

B1: anti-NDM antibody 1041 (antibody, V domains shown)
VH: QVQLKQSGAELARPGASVKLSCKASGYTFRGYGISWVKQRTGQGLEWIGEIYPGSGNTHYNEKFKGKATLTADKSSSTAYMQLSSLTTEDSAVYFCADLGSWFANWGQGTLVTVSA
VL: DIVLTQSPATLSVTPGDSVSLSCRASQSIYNNLHWYQQKSHESPRLLIKYASQSISGIPSRFSGSGSGTDFTLSINSVETEDFGMYFCQQSNSWPYTFGAGTKLELKR
notes: It was selected from a phage display Fab library; Used as capture antibody
As for B1, the binding result with NDM carbapenemase is given as “binds”.

B2: antibody 1721 (SEQ ID Nos: 19 and 23), detector antibody for VIM (antibody, V domains shown)
VH: QVQLQQPGSVLVRPGTSVKLSCKASGYTFTSYWMHWVKQRPGQGLEWIGEIYPNSGKTNYNEKFKGKATLTVDTSSSTAYVALNSLTSEDSAVYYCAKRYSLYDFTLDYWGQGTSVTVSS
VL: DIKMTQSPKSMSMSVGERVTLTCKASENVGTFVSWYQQKLDQSPKLLIYGASKRYTGVPDRFTGSGSATDFTLAISSVQAEDLADYHCGQSFSYPLTFGAGTKLELKR
notes: The detector is labelled with biotin
On to B2, for which, in the experiment with VIM carbapenemase, the binding result is recorded as “binds”.

B3: anti-OXA-48 antibody 1281 (antibody, V domains shown)
VH: DVQLQQSGPEMVKPGASVKISCKAFGYTFSDYYMYWVKQSHGKSLEWIGRVNGNNGDTRYNQKFEGKATLTVDKSSSTAYMELNSLTSEDSAVYYCARGDYLAYWGQGTTLTVSS
VL: NIVLTQSPASLAVSLGQRASISCRAIKSVDSYGTSFMHWYQQKPGQPPKLLIYRASNLESGIPARFSGSGSRTDFTLTINPVEADDVATYYCHQSNEAPYTFGGGTKLEIKR
notes: It was selected from a phage display Fab library
In the case of B3, in the experiment with OXA-48 carbapenemase [1], the binding result is listed as “binds”.

B4: anti-OXA-48 antibody 1461 (antibody, V domains shown)
VH: QVQLKQSGAELGRPGSSVKLSCKTSGYKFKSYGINWVKQRPGQGLEWIGYIYPGSGYIEYNEKFQGEATLTSDTSSSTAYMQLRSLTSEDSAIYFCGRLGDGYFFYAMDYWGQGTSVTVSS
VL: QIVLTQSPTTMAASPGEKITITCSASSSISSNYMHWYQQKPGFSPKLLIYRTSNLGSGVPVRFSGSGSGTSYSLTIGTMEAEDVATYYCQQGSSIPFTFGSGTKLEIKR
notes: Used as capture antibody spotted on the array
For B4, the binding result with OXA-48 carbapenemase [2] is on record as “binds”.

B5: anti-VIM antibody 1071 (antibody, V domains shown)
VH: QVKLQQSGPELARPGASVKLSCKASGYTFRSYGITWVKQRTGQGLEWIGEIYPESNISYYNEKFKGTATLTTDKSSSTAYMQLSSLTSEDSAVYFCARRDYDGSYIYWGQGTTLTVSS
VL: QIVLTQSPTTMAASPGENITITCSASSSISSNFLHGYQQKPGFSPKLLIYRTSNLASGVPTRFSGSGSGTSYSLTIGTMEAEDVATYYCQQGDSLPRTFGGGTKLEIKR
notes: as for B1
With B5, the binding result with VIM carbapenemase is recorded as “binds”.

B6: anti-NDM antibody 1121 (antibody, V domains shown)
VH: QVQLQQSEADLVRPGSSVKISCKASGYAFSNSWINWVKQRPGQGLEWIGQINPGDGNTKYNGKFKGKVILTADKSSSTAYMQLSSLTSEDSAVYFCERETPLWSFVYWGRGTLVTVSA
VL: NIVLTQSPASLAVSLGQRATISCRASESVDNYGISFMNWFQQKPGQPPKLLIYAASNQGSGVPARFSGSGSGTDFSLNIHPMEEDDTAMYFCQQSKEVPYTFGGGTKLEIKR
notes: Used as detector antibody, labelled with biotin
Take B6: the binding result with NDM carbapenemase is reported as “binds”.
